B1: OsNCED2-a (probe 1) (dsDNA)
DNA 1: AACATTCTATCCCATAAAATTGTGTTTTGTTGCAAATGTCC
DNA 2: GGACATTTGCAACAAAACACAATTTTATGGGATAGAATGTT
modifications: 3' biotin
B2: OsNCED2-b (probe 2) (dsDNA)
DNA 1: GGGGTTGTCTATGTAACATATAATTGGATATATATTCATTCC
DNA 2: GGAATGAATATATATCCAATTATATGTTACATAGACAACCCC
modifications: 3' biotin
B3: OsNCED2-c (probe 3) (dsDNA)
DNA 1: GGGGCTAATAATTAGCCTTCCAAAATTTTGCTATTTATAAGTA
DNA 2: TACTTATAAATAGCAAAATTTTGGAAGGCTAATTATTAGCCCC
modifications: 3' biotin

Molecular target: OsMADS23 (Oryza sativa (rice), UniProt Q6VAM4 1-159)
Sequence (Q6VAM4 whole entry): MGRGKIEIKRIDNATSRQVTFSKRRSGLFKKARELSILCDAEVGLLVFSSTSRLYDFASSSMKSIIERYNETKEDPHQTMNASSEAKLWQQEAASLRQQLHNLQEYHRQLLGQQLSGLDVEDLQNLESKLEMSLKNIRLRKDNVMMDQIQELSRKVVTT
Assay: EMSA; signal reduced by excess unlabeled probe; LightShift Chemiluminescent EMSA kit (Thermo), manufacturer's instructions; buffer, salt, pH and temperature not stated
Details: protein: recombinant; tags: His, trigger factor (pCold-TF); chain copies: 2; label: biotin; blunt

Binder	binding result
B1	binds
B2	binds
B3	binds

Reference: article PMC8363014, “OsMADS23 phosphorylated by SAPK9 confers drought and salt tolerance by regulating ABA biosynthesis in rice”
